Substrate in series [1]: C[C@@H](O)C(=O)O
Briefly: purified protein. The series is classed as biochemical, Lactiplantibacillus plantarum. To be noted: PBS pH 7.4, 35°C, 2.13 µM enzyme, racemization to L-lactate.

Substrate in series [2]: C[C@H](O)C(=O)O
Kind of series: purified protein. It counts as biochemical, Lactiplantibacillus plantarum. Conditions: PBS pH 7.4, 35°C, 2.13 µM enzyme, racemization to D-lactate.

B1: LarALp (Lactiplantibacillus plantarum WCFS1) (protein)
chain: VAIDLPYDKRTITAQIDDENYAGKLVSQAATYHNKLSEQETVEKSLDNPIGSDKLEELARGKHNIVIISSDHTRPVPSHIITPILLRRLRSVAPDARIRILVATGFHRPSTHEELVNKYGEDIVNNEEIVMHVSTDDSSMVKIGQLPSGGDCIINKVAAEADLLISEGFIESHFFAGFSGGRKSVLPGIASYKTIMANHSGEFINSPKARTGNLMHNSIHKDMVYAARTAKLAFIINVVLDEDKKIIGSFAGDMEAAHKVGCDFVKELSSVPAIDCDIAISTNGGYPLDQNIYQAVKGMTAAEATNKEGGTIIMVAGARDGHGGEGFYHNLADVDDPKEFLDQAINTPRLKTIPDQWTAQIFARILVHHHVIFVSDLVDPDLITNMHMELAKTLDEAMEKAYAREGQAAKVTVIPDGLGVIVK
notes: co-expressed with L. plantarum LarB, LarC, LarE in E. coli BL21(DE3) (Duet, pAT035/pAT038)
With B1, in the series “purified protein [1]”, the Km – broadly, the concentration of substrate that gives half-maximal velocity – came out at 23 ± 12 mM; the kcat (usually the number of substrate molecules converted per active site and unit of time at saturation) was 185 ± 12 s⁻¹. For the same protein, in “purified protein [2]”, the Km is recorded as 32 ± 10 mM and the kcat was determined as 179 ± 25 s⁻¹.

These data come from PMC11796402, “Overcoming barriers for investigating nickel-pincer nucleotide cofactor-related enzymes” (mBio, 2024).
